Experimental data taken from a protein production outcome set (Wang et al. 2014).

Assay: label from the status in PepcDB records
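Also: failed if final PepcDB status was selected cloned or expressed and not failed if soluble or beyond.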

In the case of “MKIALFGTSADPPTLAHRAILIWLAQHFDQVAVWAADNPFKQGPNPETGHWASLGDRQAMLKLLVEDVQKDYATVQIWEDLSDRRSLISLQRAQQRWGLEPDYALVVGADLIRQISQWYAVKELLPAVQLVIFPRPGYGINQADLDKLAQLGGHYQLVNQGDDQAITPPISSSIYRQIRDDDLIPDPVQSYIQQRQLYRQ”, the protein production is reported as “failed”.
For “MSLGALPTAEDIDAVVLDFDGTQTDDRVLIDSDGREFVSVHRGDGLGIAALRKSGLTMLILSTEQNPVVAARARKLKIPVLHGIDRKDLALKQWCEEQGIAPERVLYVGNDVNDLPCFALVGWPVAVASAHDVVRGAARAVTTVPGGDGAIREIASWILGPSLDSLDKEGHHHHHH”, the protein production was “not failed”.
For “MQLQTEVKKQPSKRKFKMPDAYVLLFFIALLCAIATYFVPAGEFKRVTNRTVTTTIPGSYHSVPQSPVGFVSFFTAIEKGMTLAAPIIFLILFTGGAIAILEKTGALDGLIYHVINKFRNQQFLFICIVAALFSILGTTGIIVNSVIGFIPIGIIVARTLKWDAIVGVAIIYLGTYAGFNATILSPSPLGISQKIAELPMFSGIGLRTAIYLSFLLATILYINWYVKRLKKSNKGSILGDNWFPSNALSSGKEAQKTEVPWTIRHKLILLVSALSLITFLIGAFRLHWTDAEMTATFIFIAITAGIIGGMKANDIASTFLAGCQNLIYGALIVGMARCISVILEQGKLLDTIVNQLAQSLEGQSPVFGVIGMYVSSAALHFLISSGTGESVIFIPILAPLADFMHITRQVTVQAVMLGEGVVNCLNPTSGVLMGVLAASGISYGKWIRFMAPLAFIWFIIGLIFLIVGVNIEWGPY”, the protein production was “failed”.
With “ATEEFIIRIPPYHYIHVLDQNSNVSRVEVGPKTYIRQDNERVLFAPMRMVTVPPRHYCTVANPVSRDAQGLVLFDVTGQVRLRHADLEIRLAQDPFPLYPGEVLEKDITP” the protein production was “failed”.
With “MSDINTVNLINQMKTLAAQAEGIKPDSGLNHASFSSVFQQALNQVNELSQTADSLKTRFEIGDPNVSLGEVMIASQKSNLGFEATLRVRNKLVQAYQDIMNMPV” the protein production was “failed”.
In the case of “MNLTELMERIPHLREILNIVREAFKDYDDPAHDISHTFRVMENASEIASREKCDLQKAIIAALLHDIKRPHEALTGVDHAESGAEYASGLLPTMGFDISFVAEVSKAIRSHRYSGGLTPTSLTGKILQDADRLDAIGAVAIARVFSYSGKTGTPLHSLQFSPRSSYSGNSRSSINHFHEKILKIRPETFWTETARKMAEDRYSFVVEFVQRFLAEWGQI”, the protein production is reported as “not failed”.
With “MVKPLRLNDRHQQILRATVQHYIATAEPVGSHTLAQEYQFAVSSATIRNALGQLEKAGLLYQPHVSAGRVPSDSGYRIYVDNLLTWSDRQSRTVKQRLENEINGDNWHFEALIQRMGQILAGLSGYIALITFPQTETVQLRHLQLMLLPSHQILIILVTDSYHTHSATLDLPAAMEAKEEGELEQELAIFSNFLNAQLRGKNLSELSHLNWQELDQKFSIYADFLKGLQQQIKPLLQRRMAGPLVVHGVSKVIQQPEFSQLEQVQMLLSLLEQEQDKLFSLLFDPDNYGDNLANLGQEMNLLTGETMPKTRPVVTIRIGAENPLESMHPCTLVSAIYRQQEIPMGSVSILGPTRMVYQQTIPLVEQAAECLSEALSKN” the protein production was “failed”.
For “MDQQSIVSILMILATFGLYIGISIYNRARATSDFYVASRGVPPFWNGMAIGGDWMSAASFIGMAGTIMILGYDGLAYIMGWTGGYLFLTFLFAPQLRKYGRYTVPEFIGDRYGSNTARLIAAIATIIISFTYIIGQLSGSGVVIGRILNIPAMYGTMIGVVVIAIYATLGGMKGITWTQVAQYIILIVAYIIPIVFMSLQLSGNPFPWLTYGNFISQLDGLDQELGLSQILQPFMESDKSQFIALMFTLMVGTAALPHVIVRFYTVTTMKAARWSGAWALIFIALLYLSAPAYAAFSRFILMTQVANQPIDQLPAWTEAWINTGLLEMADANGDGILQWEELRISNDIVVMATPEIANLGMFVIGLVAAGAMAAALSTAGGLLITISSSFAHDIYYRLMNPKASDQKRLLAGRIAIVLATIVAGVVALDPPGVITQIVAWAFGLAGGAFFPVLLLGVWWKRANAKGAIAGMLSGLAVTLVYIFLARTGTFTLFGIQDTGAGLIGVPVNLFVTIVVSLMTAAPSQKLQDEVVDLRYPEQMTYKDGEVWMDESSGK”, the protein production was “failed”.
In the case of “MKILIVSNTALGDTILSTPLFRETRLALPKAHITALLNPVNAMLFETNPYLDKIELYGGRWRGFLGAWWKLWRRGFDVALLGHSNDPQITPLCLLLGISKIIKIPNHKNPWQRFHHNPLEHHHHHH”, the protein production is reported as “failed”.
With “MSSLNLSPAAVSELVFSQTGLALISLLLTLFCYFAAKILYQRHRVWWLAPIVLAPVVITLLVFNLDIPLPTYFEYTHWLMAMLAPATIAFALPIYRERKLIRQYPLTIAFGVIAGLLLGMVSSWLLVKFVPLPVELSKSLLVRSVSTPFAMEATGAFGGVPELTAMMVLITGIIGMLVCEPLFKLMHIRTSLGKGVALGASAHGAGAAKASELGQQEGVIASLTMIFIGIAMVLGAPFFALIFS” the protein production was “failed”.
For “PVLTQTSEQAPSSAPRDVQARMLSSTTILVQWKEPEEPNGQIQGYRVYYTMDPTQHVNNWMKHNVADSQITTIGNLVPQKTYSVKVLAFTSIGDGPLSSDIQVITQTG”, the protein production was “not failed”.
With “MPGSALKYRDLRDFLAQLERQGELKRITAPVSTRLEMTEIADRVLRAGGPALLFENARHNDAPADMPVLANLFGTPRRVAWGMGADDVGALRETGELLASLREPEAPKGLRDALAKVSMLKAALWDMSPKTVRSAACQEIVWEGADVELSRLPIQTCWPGDVAPLLAWGLVITRGPNARRQNLGIYRQQPLGPNKLIMRWLSHRGGALDFRDHAQAHPGKPFPITVALGADPATILGAVTPVPDTLSEYQFAGLLRGSRTEVVKALGSDLSVPASAEIVLEGHLLPADDPRAVAAVVPEGANPPPATGYEMALEGPYGDHTGYYNEQDWFPVFTVDRITMRRNPIYHSTYTGKPPDEPAVLGVALNEVFVPLLRRQLPEIVDFYLPPEGCSYRLAVVSIRKQYAGHAKRVMFGLWSVLRQFMYTKFIVVVDEDIDPRDWTEVVWAMTTRMDPVRDTVLVENAPIDYLDFASPVSGLGGKMGLDATNKWPGETSREWGTPIHMDEAVKRRVDAMWDTLGLLEHHHHHH” the protein production was “failed”.
With “MPTPADDLVVIGKIVSVYGIRGEVKVYSFTDPLDNLLDYRRWTLRRDGEIRQAELVRGRLHGKVLAAKLKGLDDREEARTFTGYEICIPRSELPSLEEGEYYWHQLEGLKVIDQGRQLLGVIDHLLETGANDVMVVKPCAGSLDDRERLLPYTGQCVLSIDLAAGEMRVDWDADF” the protein production was “not failed”.
With “MLDSFEILKALKSLDLLKNAPSWWWPNALKFEALLGAVLTQNTKFEAVLKSLENLKNAFILENDDEINLKKIAYIEFSKLAECVRPSGFYNQKAKRLIDLSKNILKDFQSFENFKQEVTREWLLNQKGVGKESADAILCYVCAKEVMVVDKYSYLFLKKIGIEIEDYDELQHFFEKGVQENLNSALALYENTIPLAQLYARFHGKIVEFSKQKLELKL” the protein production was “failed”.
For “MTSSPTSTQESSTSWYLLLQQLIDGESLSRSQAAELMQGWLSEAVPPELSGAILTALNFKGVSADELTGMAEVLQSQSKMGTGENYSQLPITNSPFSIIDTCGTGGDGSSTFNISTAVAFVAAAYGVPVAKHGNRSASSLTGSADVLEALGVNLGASPEKVQAALQEVGITFLFAPGWHPALKAVATLRRTLRIRTVFNLLGPLVNPLRPTGQVVGLFTPKLLTTVAQALDNLGKQKAIVLHGRERLDEAGLGDLTDLAVLSDGELQLTTINPQEVGVTPAPIGALRGGDVQENAEILKAVLQGKGTQAQQDAVALNAALALQVAGAVPLLDHAQGVSVAKEILQTGTAWAKLAQLVYFLGN”, the protein production was “not failed”.
In the case of “MGRVRLQANQMEWRPGIYVGEGTTIASSAQLEPPLWIGQHCYIGEEVQLKAGTVIGDESRIEAGACLDRAVVWNRVQIGQRSHLEGCVLADGVRLERHVQIHEGAVIGSGCRLQEEAQVQAEVRIWPRKQIEAGAILEHHHHHH”, the protein production is reported as “failed”.
For “MSRNRVMSIDFQQLPHAGIRSLIPYVPGKSIEELAKEKGITDIIKLASNENPLGCSPLALSVIQTMSSHYIATYPSPWNHPLMSKLASYLKVKPEQLFLSNGSDYLFNILLNCFALHTDRHILTHDYAFSTYAIQANSLQIPINSVPIGHNWEVNITDIVNACNQQTGIIFIANPNNPTGVLIQQEEIKYLLEQIPKSTLLVLDEAYYEFAASQLTVNSLDWLEEHPNLVVTRTFSKIYGMAGLRLGYAIANPSIINILKRVQLPFIVNQVALAAAYAAIDDDDFIQSSLKMNNEGMLQLQAGFNELNIKYLPSSCNFLTFDCEEDSMALYNYLLDNGIIVRPLHAYKMNNFIRVTIGTKEQNSRFLTALKNFYL”, the protein production was “failed”.
With “MSLKRILIVDDDTAILDSTKQILEFEGYEVEIAATAGEGLAKIENEFFNLALFDIKLPDMEGTELLEKAHKLRPGMKKIMVTGYASLENSVFSLNAGADAYIMKPVNPRDLLEKIKEKLDEQEKEGHHHHHH” the protein production was “not failed”.
With “LVRQEETLRLAIDAADVGTWDHDLETGEVRLSDRCYAMFGVTPGEPVTHETLMPFTHPADVVRVQEAVARALDPAIRADYAIEFRVNGRDDHVERWLSAKGEVSFDNEGRPRRFLGAVVNITERKRAELHLRLLVNELNHRVKNSLATIQAIAAQSFNGQRDMDEAKEAFSNRIVALAEAHDLLTRENWEGAEMHDVAARVAALHGGDARFELSGVAIRLSPKTALSLSMALHELATNAVKYGALSVPEGVVRIVWDMAPEP” the protein production was “failed”.
In the case of “MKSQWECFLQNLGVWEGSFSNFSPEGTLLNDTSSRLCLEGLNNNQTVRLTLSRSGKDDVIREFRSVGGGLLFFENGSFSEGLIQLGPFSEFGGELAFVHENRRLRLVQLFDRNGHLNGLTLIREHLAGTPVAERPLLQINDLLGEWRGQAVTIYRDLRPPDIYSTTLKIQLDDAGRLMQSTSFGERTITSTATIKGSIVLFDQDPEKQVQVLLLPDGASATSPLKVQLRQPLFLEAGWLIQSDLRQRMIRSYNDKGEWVSLTLVTEERV”, the protein production is reported as “not failed”.
With “MSDINKPFLVVIVGPTASGKTELSIELAKQINGEIISGDSMQVYKQMDIGTAKVTNEEMDGIPHYMIDILNPDDSFSVYDFKLRAQALIEDITSRGKIPIIAGGTGLYIQSLIYDYPFDDETVSKEVEQKTQLQLQKLEPLTNQEVHDYLATFDPQSAKDIHPNNRKRVLRAIEYYLNTKKLISSRKKVQQFTENYDTLLIGIEMSRKTLYSRINKRVDIMLGHGLFNEVKNLVEQGYESTQSMQAIGYKELVPVVNGELSIDQAVETLKQHSRQYAKRQLTWFKNKLTVQWFNRETMSLQMMLDEITTQINKRSSKHDCKPQHPRSSTREL” the protein production was “failed”.
With “MTITSFGPANRIARTAETHPLTWRLRDDGEPVWLDEYQTKDGYAAARKALTQQAPDDIVQSVKDSGLKGRGGAGFPTGVKWGLMPKDESMNIRYLLCNADEMEPNTWKDRMLMEQLPHLLIEGMLISARALKAYRGYIFLRGEYVTAAKHLNRAVAEAKAAGLLGKNILGTGFDFELFVHTGAGRYICGEETALINSLEGRRANPRSKPPFPAAVGVWGKPTCVNNVETLCNVPAIVNNGNDWYKSLAREGSEDHGTKLMGFSGKVKNPGLWELPFGVQARELFEDYAGGMRDGFTLKCWQPGGAGTGFLLPEHLDAQMYAGGIAKVGTRMGTGLAMAVDDSVNMVSLLRNMEEFFAQESCGFCTPCRDGLPWSVKILRAIENGHGQPGDIETLLGLVNFLGPGKTFCAHAPGAVEPLGSAIKYFRSEFEAGIAPASAAMLVPGKSPTVVGALEHHHHHH” the protein production was “failed”.
